This note sets out measurements from PMC2602806.

Read-outs that look alike come from different tables or passages of the source.

What all share (experiment): X-ray crystallography
In data set [1] the target is T1, VP1 RNA-dependent RNA polymerase (cVP1) (Simian rotavirus A SA11 (group A; …, UniProt O37061 1-1088).
T1 sequence: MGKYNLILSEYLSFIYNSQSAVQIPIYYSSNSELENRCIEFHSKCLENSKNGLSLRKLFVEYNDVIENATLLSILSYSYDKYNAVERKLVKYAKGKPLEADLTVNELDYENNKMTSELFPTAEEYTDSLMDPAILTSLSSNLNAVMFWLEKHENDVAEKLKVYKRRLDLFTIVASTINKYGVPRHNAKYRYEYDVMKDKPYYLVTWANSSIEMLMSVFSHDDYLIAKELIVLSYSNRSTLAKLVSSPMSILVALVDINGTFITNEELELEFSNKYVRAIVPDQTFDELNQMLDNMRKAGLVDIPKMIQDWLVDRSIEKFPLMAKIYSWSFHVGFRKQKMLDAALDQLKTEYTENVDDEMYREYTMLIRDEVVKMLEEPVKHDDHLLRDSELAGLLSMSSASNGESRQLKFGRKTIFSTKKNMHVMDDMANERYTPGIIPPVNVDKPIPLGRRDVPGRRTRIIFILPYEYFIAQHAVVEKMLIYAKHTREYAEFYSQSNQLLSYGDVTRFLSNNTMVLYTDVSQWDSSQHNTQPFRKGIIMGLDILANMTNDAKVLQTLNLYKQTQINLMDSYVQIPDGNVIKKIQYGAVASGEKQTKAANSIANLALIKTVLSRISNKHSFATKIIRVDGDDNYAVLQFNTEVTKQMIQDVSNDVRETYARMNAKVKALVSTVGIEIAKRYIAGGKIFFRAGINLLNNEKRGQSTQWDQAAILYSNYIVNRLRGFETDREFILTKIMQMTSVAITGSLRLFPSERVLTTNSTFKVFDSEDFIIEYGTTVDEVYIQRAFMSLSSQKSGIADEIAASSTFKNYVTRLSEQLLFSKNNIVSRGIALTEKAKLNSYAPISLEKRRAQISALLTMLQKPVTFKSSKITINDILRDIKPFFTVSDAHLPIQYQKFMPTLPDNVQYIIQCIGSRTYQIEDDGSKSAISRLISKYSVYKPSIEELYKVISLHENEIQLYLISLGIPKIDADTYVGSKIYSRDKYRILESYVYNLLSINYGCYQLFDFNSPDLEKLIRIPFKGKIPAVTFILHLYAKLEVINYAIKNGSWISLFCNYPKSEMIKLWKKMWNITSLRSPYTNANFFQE

Data set [2] has as its target T1, VP1 RNA-dependent RNA polymerase (cVP1). This is another data set of the same source.
Data set [3] has the same target. The source holds these as a separate data set.
The target is the same in data set [4]. This is another data set of the same source.
The target is the same in data set [5]. The source holds these as a separate data set.

GGCUUU (ssRNA) [5'CS+]: in data set [1], the binding result is on record as “binds”.

Regarding UGUGACC (ssRNA) [3'CS+ wild type], the binding result in data set [2] is given as “binds”.

Regarding UGUGCC (ssRNA) [3'CS+ A3-deletion], the binding result in data set [3] was “binds”.

Consider AAAAGCC (ssRNA) [3'CS-], for which the binding result in data set [4] is recorded as “binds”.

As for UGUGAACC (ssRNA) [3'CS+ A-insertion], the binding result in data set [5] is “binds”.
